Measurements: the supplement of paper PMC9170038

System: MS2 coat protein
Assay: apparent KD of MS2 coat protein; higher = weaker reporter binding
Conditions: Eterna round: R107
Protocol: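 RNA-MaP round R107: designed RNA switches with theophylline, tryptophan, arginine or FMN aptamers are transcribed on-chip within common flanks. They are titrated with SNAP-549-labelled MS2 coat protein in RNA-MaP buffer (100 mM Tris pH 7.5, 80 mM KCl, 4 mM MgCl2), without ligand or with the indicated ligand. Median apparent KD per design.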

[1] = input ligand: theophylline 20 uM
[2] = input ligand: tryptophan 2.4 mM
[3] = input ligand: theophylline 2 mM

Sequence	apparent KD of MS2 coat protein (input ligand: arginine 13.2 mM) [nM]	apparent KD of MS2 coat protein [1] [nM]	apparent KD of MS2 coat protein [2] [nM]	apparent KD of MS2 coat protein [3] [nM]	apparent KD of MS2 coat protein (input ligand: none) [nM]
AAGCUGCCAAGAAGGUGAUCCAAAUGUGAUACCAGCUAGGAAACUAGCCCUUGGCAGCACAUGAGGAUCACCCAUGUAAUAAUAA [(T)'-(M)'-(T1)-(T2)-(M1)-(M2)_Design1_2/19/17]	37.7	191	48.3		
AAGCUUCGCAUAGGAAAACUAUGUGAAGCUCGAGGACCGGUACGGCCGCCACUCGUCCUCAACAUGAGGAUCACCCAUGUAAUAA [Mat - Exclusion - Trytophan A - D2]	20.7	28.6		25.9	
AAGGCACGAGACAUGAGGAUCACCCAUGUUCGAGGACCGGUACGGCCGCCACUCGGUGGACUCAUGGUAAAGCCGGUGAGCCAAA [AK 1.1 SS Trypt (A)]	18	25.2		22.5	
AAGUAAACAUGAGCAAAGCUCAUGUGCGAAGGAGCGGCGGAAACGCCAGGUAGGUCGCGCACAUGAGCAUCAGCCAUGUGUGUCA [Omei Arginine B SS A v1]	11.2	89.8	52.9	58.9	37.9
AAUAAACAUGAGGAUCACCCAUGUAGGGUGCGAGGACCGGUACGGCCGCCACUCGGGUGAAAACAUGAGGAUCACCCAUGUAAAA [Mat - Exclusion - Trytophan A - D23]	61.1	185		220	
AAUAAACAUGAGGAUCACCCAUGUUGUUGACGAGGACCGGUACGGCCGCCACUCGACAUGAGGAUCACCCAUGUUGUCACAUGAG [Same State Tryptophan A]	73.1	190		256	
AAUACCGGAUCGGCCGCCACUGGUUGGCCCUGUGUACAUGAGGAUCACCCAUGUCCAUCCCAGACCAGGACCGGGAUCUUUGUGU [Ingeraza]	15.6	20		18.5	
AAUAGACAUGAGGAUCACCCAUGUAUGGAAGGAGCGGUGAAUAAGCCAGGUAGGUCGCCAGUGUGAGGGUUAUCUAUGUAAUAAA [#19 Exclusion - Arginine A]	27.4	41.6	40.8	35.7	38.4
AAUCGUAAGGCGGCCGCCACUACACAUGAGGAUCACCCAUGUCUCGCAGGCUUGCGUUGGGAUAGUAGGACCGGGCCAGUAAUAA [Exclusion - Tryptophan B (Freestyle 14)]	18.5	28.8		26.6	
AAUCUGAUUGCGGCCGCCACUAAUUUUCCAUGAGUAUUGCAAUUACAUGAGGAUCACCCAUGUCAUAGGACCGGGCAUGACAUCU [theeternabot_sameState_MS2_Trp_B_45]	104	202		309	
AAUGAGUGGUGGUCAAACAUGGGUGAUCAACGAGGACCGGUACGGCCGCCACUCGAUAACAUGAGGAUCACCCAUGUAAUAAUAA [|T'-M'-Trp-Ms2|_Design9]	55.5	492		683	
AAUGUAUGGCACAUGAGGAUCACCCAUGUGCGAGGACCGGUACGGCCGCCACUCGGUCAAGGGAUCUUACCUCUAUACAUUAAUG [XTryp A #22]	10.6	14.7		11.9	
AAUGUAUGGCACAUGAGGAUCACCCAUGUGCGAGGACCGGUACGGCCGCCACUCGGUCCUGGGAUCUUACAACUAUACAUUAAUG [XTryp A #20]	10.3	17.2		16.4	
AAUGUAUGGCACAUGAGGAUCACCCAUGUGCGAGGACCGGUACGGCCGCCACUCGGUCCUGGGAUCUUAUUACUAUACAUUAAUG [XTryp A #17]	11.8	15.7		12.5	
AAUUCCUCACAUGAGGAUCACCCAUGUGAAGGAGCGCCGAAUAAGGCAGGUAGGUCGCACAUGGAAACCGCUACGAAAGUAGCAA	13.1	64.8	21.3	20.5	20.5
AAUUCCUCACAUGAGGAUCACCCAUGUGAAGGAGCGCCGAAUAAGGCAGGUAGGUCGCACAUGGAAACCGCUGCGAAAGCAGCAA [MAT - Exclusion Arginine A - Mod of Eli - D25]	21	33.2	24.5	25	21.7
ACAAGUCCUCAUGAUACCAGCGAUGAGACAUAGUCUCAACAUGAGGAUCACCCAUGUAUUCGCCCUUGGCAGCAUACGGUUUUUG [Arleer]	85.1	373	517		
ACACAUGAGGAUCACCCAUGUCCAAUAGAUACCAGUGAUACGGUGCACCCUUGGCAGCUGUUGCUGAGUGAUGGUUCCCUCGGAA [Same State Theophylline A GF4]	48.6	138	112		
ACAUGAAGAACAGCGGUGGGCGCGCUCGAUACCAGUACUUUGAUUUACCCUUGGCAGCGACAUGAGGAUCACCCAUGUGAGAUGA [XTheo A #1]	16.9	22.4	18.6		

Sequence	apparent KD of MS2 coat protein (input ligand: arginine 13.2 mM) [nM]	apparent KD of MS2 coat protein [1] [nM]	apparent KD of MS2 coat protein [2] [nM]	apparent KD of MS2 coat protein [3] [nM]	apparent KD of MS2 coat protein (input ligand: none) [nM]
ACAUGAGGAUCACCCAUGUAUGACUAUCCUCGAGGACCGGUACGGCCGCCACUCGAAGGAGUGGCUCGCGAGUGCGCACUUGCAA [5' end]	9.87	16.5	11.5	13.6	12.5
ACAUGAGGAUCACCCAUGUAUUACCGGGAAGGAGCGCGUAAGGACGCAGGUAGGUCGCUCGGCGUCGUGCCGGAAGGCACGACGA [#1 Same State - Arginine A Attempt #22 (HarryS)]	17.9	49.8	13.8	15.6	13.6
ACAUGAGGAUCACCCAUGUGAAGGCACGAUACCAGCUGAUCCCGUGGCCCUUGGCAGCGUCCGGUUUGGUCCGGCGGAUGAGACG [azamullin]	19.6	36.4	23.5		
ACAUGAGGAUCACCCAUGUGGCGUCUUGAUACCAGACGAGAAGUAGUCCCUUGGCAGCAAAUACAUGAGGAUCACCCAUGUAGGA [cccmullin]	16.6	25.5	24.3		
ACAUGAGGAUCACCCAUGUGUCCUCGAAAACGAGGACCGGUACGGCCGCCACUCGAAAUAAGCGACAAGCGAAAAGCUUGUCGCA [Mat - Exclusion - Trytophan A - D22]	57.6	194	406	135	113
ACAUGAGGAUCACCCAUGUGUGUAAAUCCUCGAGGACCGGUACGGCCGCCACUCGAUUGAGUGUAAGUUGAAUGUAACAUUCAAC [whbob_SS_trypto A_2s9]	46	134		144	
ACCGCGGUAUCGGCCGCCACUUGUGGGUUAAAUCUGGUACAUGAGGAUCACCCAUGUGUCUCCUCGAGGACCGGGAUAGCGUGAC [Geaner]	97.7	168		211	
ACCUGUACGAAAAGUGCAGGACACGGAAUACGAGGACCGGUACGGCCGCCACUCGGAUAAAACCUGAGGAUCACCCUGGUCCGUG [TrypAS 14 #AlternativeMS2 #Zipper #StaticStem]	27.7	43.5	22.6	34.6	24.6
ACCUGUACGAAAAGUGCAGGACAUGAAUAACGAGGACCGGUACGGCCGCCACUCGGGUAAUAACCUGAGGAUCACCCGGGUCAUG [TrypAS 6 #AlternativeMS2 #Zipper #StaticStem]	111	211	27.5	249	218
ACGACAUGAGGAUCACCCAUGUAAGGUGAUACCAGACGAAGUAAUGUCCCUUGGCAGCACACGCAUAGUUGCGAUUAUUGUACGA [JR_SSTheophyA_Sub007]	83.7	522	572		
ACGACGGCUGCGGCCGCCACUGUACAUGAGGAUCACCCAUGUGUAGUAAUUGGGACCCUGUGUUACAGGACCGGGUAGUUGAUUA [Orquteer]	23.3	49		47.1	
ACGUAAUGCAGAAGGAGCGUCAUUUUAAAACAUGAGGAUCACCCAUGUAAUAUUUUUGUGUGACAGGUAGGUCGCUGAAGUACGA [JR_SSArginiB_Sub007]	13.9	17.7	11.8	14.4	13.4
ACGUAUGUCAGAAGGAGCGUCAAUAACAUGAGGAUCACCCAUGUAUUACAUAGGUAUAAUAGACAGGUAGGUCGCUGAAUUCGAA [JR_SSArginiB_Sub022]	22.4	46.4	27	31.2	29.2
ACGUCAUGGAGAACGUGACGACUUGUCGAUACCAGUGUUUGAUAGCGCCCUUGGCAGCGAACAUGAGGAUCACCCAUGUCAAGGG [#11 SameState-TheophyllineA]	51.7	84.6	66.4	88.9	72.8
ACGUCCAGGUUAAUCGUGGACAUGGUCGAUACCAGUAUUUUAAUCUACCCUUGGCAGCGACAUGAGGAUCACCCAUGUGCGAUGA [XTheo A #15]	11.7	14.7	13		
ACGUCUCGAAAACUCGUAGUAACAAUAGAUACCAGUAGCGAGAGUUACCCUUGGCAGCUACAUGAGGAUCACCCAUGUACGAGGA [XTheo A #27]	19.1	26	18.1		
ACUAGGCUCGGAAACGAGCCUAGGACAGAAGGAGCGUGGAUUAACACAGGUAGGUCGCUGACAUGAGGAUCACCCAUGUAUUUAU [SSAA #5]	19.9	31.2	21.9	25.6	27.3
ACUUGGUGGUGAUCCCUGCCAAGAGGUGAUACCAGCAUCGAAAGAUGCCCUUGGCAGCACCAACAUGAGGAUCACCCAUGUAAUA [(MT)''-(M)'-(T')-(Theo)-(Ms2)_Design1/22_6]	62.6	185	214		
